This note sets out measurements from patent publication US20110271358A1 (Dana-Farber, published 2011).

Where a chain is given by its changes, count along the chain named.

Test [1] has as its target T1, human Fc-PD-L1 (R&D systems) (human, UniProt Q9NZQ7 19-239).
T1 construct: Bought Fc fusion coated on the ELISA plate; also called human PD-L1; not shown: Fc part of the bought fusion protein
The test can be described thus: competition ELISA on coated human Fc-PD-L1; competitor biotinylated 29E.2A3. On the technique in general: In an ELISA, binding on a coated surface is turned into a signal by an enzyme label.

For test [2], the target named is T2, human Fc-PD-1 (R&D systems) (human, UniProt Q15116 25-167).
T2 construct: Bought Fc fusion coated on the ELISA plate; also called human PD-1; not shown: Fc part of the bought fusion protein
T2 sequence (Q15116 25-167 limits assumed): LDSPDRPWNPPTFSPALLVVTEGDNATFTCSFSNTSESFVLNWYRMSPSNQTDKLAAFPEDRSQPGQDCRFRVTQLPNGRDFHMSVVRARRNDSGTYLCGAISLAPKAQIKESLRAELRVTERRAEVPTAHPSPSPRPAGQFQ
The test can be described thus: competition ELISA on coated human Fc-PD-1; competitor biotinylated EH12.2H7.

For test [3], the target named is T2, human Fc-PD-1 (R&D systems). The test can be described thus: competition ELISA on coated human Fc-PD-1; IC50 against mouse EH12.2H7.
Test [4] deals with T1, human Fc-PD-L1 (R&D systems). The test can be described thus: competition ELISA on coated human Fc-PD-L1; IC50 against mouse 29E.2A3.
Test [5] has as its target T3, human Fc-PD-L2 (R&D systems) (human, UniProt Q9BQ51 20-219).
T3 construct: Bought Fc fusion coated on the ELISA plate; also called human PD-L2; not shown: Fc part of the bought fusion protein
T3 sequence: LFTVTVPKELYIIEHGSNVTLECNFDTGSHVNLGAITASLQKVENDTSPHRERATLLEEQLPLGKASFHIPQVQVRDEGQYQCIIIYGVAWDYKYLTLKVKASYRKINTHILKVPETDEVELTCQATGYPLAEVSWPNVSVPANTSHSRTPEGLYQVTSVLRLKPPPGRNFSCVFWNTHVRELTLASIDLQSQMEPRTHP
The test can be described thus: competition ELISA on coated human Fc-PD-L2; competitor biotinylated 24F.10C12.

In test [6] the target is T3, human Fc-PD-L2 (R&D systems). The test can be described thus: competition ELISA on coated human Fc-PD-L2; IC50 against mouse 24F.10C12.

T1 sequence (Q9NZQ7 19-239 limits assumed): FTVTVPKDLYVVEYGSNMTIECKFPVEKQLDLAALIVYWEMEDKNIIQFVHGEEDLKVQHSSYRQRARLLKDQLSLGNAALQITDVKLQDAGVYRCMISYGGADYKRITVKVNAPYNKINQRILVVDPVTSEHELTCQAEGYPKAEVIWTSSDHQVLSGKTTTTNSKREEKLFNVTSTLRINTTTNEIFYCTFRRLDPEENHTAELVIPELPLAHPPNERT

B1: mouse anti-human PD-L1 antibody 29E.2A3 (antibody, V domains shown)
VH: EVQLQQSGPELVKPGASVKMSCKASGYTFTSYVMHWVKQKPGQGLEWIGYVNPFNDGTKYNEMFKGKATLTSDKSSSTAYMELSSLTSEDSAVYYCARQAWGYPWGQGTLVTVSA
VL: DIVLTQSPASLAVSLGQRATISCRATESVEYYGTSLVQWYQQKPGQPPKLLIYAASSVDSGVPARFSGSGSGTDFSLTIHPVEEDDIAMYFCQQSRRVPYTFGGGTKLEIK
notes: Mouse monoclonal antibody; also called Biotin-29E.2A3
In test [1], B1 registered an IC50 of 0.28 µg/mL.

B2: mouse anti-human PD-1 antibody EH12.2H7 (antibody, V domains shown)
VH: QVQLQQSGAELAKPGASVQMSCKASGYSFTSSWIHWVKQRPGQGLEWIGYIYPSTGFTEYNQKFKDKATLTADKSSSTAYMQLSSLTSEDSAVYYCARWRDSSGYHAMDYWGQGTSVTVSS
VL: DIVLTQSPASLTVSLGQRATISCRASQSVSTSGYSYMHWYQQKPGQPPKLLIKFGSNLESGIPARFSGSGSGTDFTLNIHPVEEEDTATYYCQHSWEIPYTFGGGTKLEIK
notes: Mouse monoclonal antibody; also called Biotin-EH12.2H7
In test [2], B2 displayed an IC50 of 1.23 µg/mL.

B3: EH12.2H7 composite, human antibody VH3/VK3 (antibody, V domains shown)
VH: QVQLVQSGHEVKQPGASVKMSCKASGYSFTSSWIHWVKQAPGQGLEWIGYIYPSTGFTEYNQKFKDRATLTADKSTSTAYMELSSLRSEDTAVYYCARWRDSSGYHAMDYWGQGTLVTVSS
VL: EIVLTQSPATLSLSPGQRLTISCRASQSVSTSGYSYMHWYQQKPDQSPKLLIKFGSNLESGIPARFSGSGSGTDFTLTISSLEPEDFATYYCQHSWEIPYTFGQGTKLEIK
notes: V regions cloned into vectors containing human constant regions (quantified against an IgG1/kappa standard; isotype not expressly stated)
B3 registered an IC50 in test [2] of 0.93 µg/mL.

B4: EH12.2H7 composite, human antibody VH3/VK4 (antibody, V domains shown)
VH: B3 VH
VL: B3 VL with E1D, T89V
notes: as for B3
On to B4, for which, in test [2], the IC50 amounted to 0.74 µg/mL.

B5: EH12.2H7 composite, human antibody VH4/VK3 (antibody, V domains shown)
VH: B3 VH with K38R
VL: B3 VL
notes: as for B3
As for B5, in test [3], the “fold increase in binding compared to the mouse reference” value is 2 fold. Moreover, the IC50 in test [2] was determined as 0.57 µg/mL.

B6: EH12.2H7 composite, human antibody VH4/VK4 (antibody, V domains shown)
VH: B3 VH with K38R
VL: B3 VL with E1D, T89V
notes: as for B3
Molecule B6 had an IC50 in test [2] of 0.91 µg/mL.

B7: 29E.2A3 composite, human antibody VH2/VK2 (antibody, V domains shown)
VH: EVQLVQSGAEVKKPGASVKMSCKASGYTFTSYVMHWVKQAPGQRLEWIGYVNPFNDGTKYNEMFKGRATLTSDKSTSTAYMELSSLRSEDTAVYYCARQAWGYPWGQGTLVTVSS
VL: DIVLTQSPATLSLSPGERATLSCRATESVEYYGTSLVQWYQQKPGQPPKLLIYAASSVDSGVPSRFSGSGSGTDFTLTINSLEAEDAAMYFCQQSRRVPYTFGQGTKLEIK
notes: as for B3
In the case of B7, the “fold reduced binding compared to the mouse reference” value (“fold reduced binding” below) in test [4] amounted to 1.75 fold. Also, the IC50 in test [1] is 0.49 µg/mL.

B8: 29E.2A3 composite, human antibody VH2/VK1 (antibody, V domains shown)
VH: B7 VH
VL: B7 VL with T10S, S12A, A84E
notes: as for B3
In turn, B8 displayed an IC50 in test [1] of 0.27 µg/mL.

B9: 29E.2A3 composite, human antibody VH4/VK2 (antibody, V domains shown)
VH: B7 VH with M20V, K38R
VL: B7 VL
notes: as for B3
With B9, in test [4], the “fold reduced binding” value was 1.36 fold. The half-inhibitory concentration (IC50) in test [1] came out at 0.38 µg/mL.

B10: mouse anti-human PD-L2 antibody 24F.10C12 (antibody, V domains shown)
VH: QVQLQQSAAELARPGASVKMSCKASGYTFTGYTMHWVKQRPGQGLEWIGYINPRSGYTEYNQKFKDKTTLTADKSSSTAYMQLSSLTSEDSAVYYCARPWFAYWGQGTLVTVSA
VL: DIVMTQSPSSLTVTAGEKVTMSCKSSQSLLNSGNQKNYLTWYQQKPGQPPKLLIYWASTRESGVPDRFTGSGSGTDFTLTISSVQAEDLAVYYCQNDYSYPLTFGAGTKLELK
notes: Mouse monoclonal antibody; also called Biotin-24F.10C12
B10 displayed an IC50 in test [5] of 0.52 µg/mL.

B11: 24F.10C12 composite, human antibody VH2/VK2 (antibody, V domains shown)
VH: QVQLVQSGAEVKKPGASVKMSCKASGYTFTGYTMHWVKQAPGQGLEWIGYINPRSGYTEYNQKFKDRTTLTADKSTSTAYMELSSLRSEDTAVYYCARPWFAYWGQGTLVTVSS
VL: B10 VL with S9A, T12S, A15P, M21I, S22T, V84L, L89V, A106Q, L112I
notes: as for B3
With B11, the “fold reduced binding” value in test [6] is 1.13 fold. The 50% inhibitory concentration (IC50) in test [5] stood at 0.58 µg/mL.

B12: 24F.10C12 composite, human antibody VH4/VK2 (antibody, V domains shown)
VH: B11 VH with M20V, K38R
VL: B10 VL with S9A, T12S, A15P, M21I, S22T, V84L, L89V, A106Q, L112I
notes: as for B3
Turning to B12, the “fold reduced binding” value in test [6] was determined as 1.13 fold. The same molecule registered a concentration for half-maximal inhibition (IC50) in test [5] of 0.6 µg/mL.

B13: 24F.10C12 composite, human antibody VH2/VK3 (antibody, V domains shown)
VH: B11 VH
VL: B10 VL with S9A, S10F, T12S, A15P, M21I, S22T, V84L, L89V, A106Q, L112I
notes: as for B3
With B13, in test [6], the “fold reduced binding” value is 1.13 fold. In addition, the IC50 in test [5] is 0.59 µg/mL.

B14: 24F.10C12 composite, human antibody VH4/VK4 (antibody, V domains shown)
VH: B11 VH with M20V, K38R
VL: DIVMTQSPAFLSVTPGEKVTITCKSSQSLLNSGNQKNYLTWYQQKPGQPPKLLIYWASTRESGVPDRFSGSGSGTDFTLTISSLQAEDVAVYYCQNDYSYPLTFGQGTKLEIK
notes: as for B3
Regarding B14, the “fold reduced binding” value in test [6] was determined as 1.13 fold. The IC50 in test [5] amounted to 0.58 µg/mL.

By IC50 is commonly meant the concentration needed to halve the response being measured. A lower IC50 goes with greater potency in that assay.
